Assay results from US10941182 (Amgen, dated 2021).
Starred links: 1 amine or outer side, 2 acyl side, 3 side chain; linkers in the order of their positions; H or OH if unused. Non-standard residues stand in square brackets, D forms with d. Primed or numbered codes have the meaning given here. *: point of attachment. dBip = N[C@H](Cc1ccc(-c2ccccc2)cc1)C(=O)O; Oic = O=C(O)[C@@H]1C[C@@H]2CCCC[C@@H]2N1; Phe(4-Cl) = N[C@@H](Cc1ccc(Cl)cc1)C(=O)O; dPhe(4-Cl) = N[C@H](Cc1ccc(Cl)cc1)C(=O)O; Heptadecanoyl = CCCCCCCCCCCCCCCCC(=O)*; Phe(4-I) = N[C@@H](Cc1ccc(I)cc1)C(=O)O; γGlu = O=C(O)[C@H](CCC(=O)[*:2])N[*:1]; NMeR = CN[C@@H](CCCNC(=N)N)C(=O)O; Tridecanoyl = CCCCCCCCCCCCC(=O)*; hArg = N=C(N)NCCCC[C@H](N)C(=O)O; Tic = O=C(O)[C@@H]1Cc2ccccc2CN1; Cha = N[C@@H](CC1CCCCC1)C(=O)O; NMeL = CN[C@@H](CC(C)C)C(=O)O; Nle = CCCC[C@H](N)C(=O)O; Pip′ = not defined here; AEEA = NCCOCCOCC(=O)O

T1: human APJ receptor (human, UniProt P35414 1-380)
T1 sequence (looked up): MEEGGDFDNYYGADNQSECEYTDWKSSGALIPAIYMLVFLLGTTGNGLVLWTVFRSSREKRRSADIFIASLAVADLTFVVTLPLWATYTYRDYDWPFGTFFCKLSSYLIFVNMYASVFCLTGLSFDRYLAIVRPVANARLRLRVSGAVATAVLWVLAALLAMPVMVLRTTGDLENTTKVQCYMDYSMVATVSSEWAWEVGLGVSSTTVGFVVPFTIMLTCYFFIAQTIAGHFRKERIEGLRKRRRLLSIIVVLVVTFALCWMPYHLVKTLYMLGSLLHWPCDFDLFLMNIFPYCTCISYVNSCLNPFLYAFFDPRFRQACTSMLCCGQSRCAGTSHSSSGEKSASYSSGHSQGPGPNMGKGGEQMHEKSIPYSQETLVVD

T2: rat APJ receptor (rat, UniProt Q9JHG3 1-377)
T2 sequence (looked up): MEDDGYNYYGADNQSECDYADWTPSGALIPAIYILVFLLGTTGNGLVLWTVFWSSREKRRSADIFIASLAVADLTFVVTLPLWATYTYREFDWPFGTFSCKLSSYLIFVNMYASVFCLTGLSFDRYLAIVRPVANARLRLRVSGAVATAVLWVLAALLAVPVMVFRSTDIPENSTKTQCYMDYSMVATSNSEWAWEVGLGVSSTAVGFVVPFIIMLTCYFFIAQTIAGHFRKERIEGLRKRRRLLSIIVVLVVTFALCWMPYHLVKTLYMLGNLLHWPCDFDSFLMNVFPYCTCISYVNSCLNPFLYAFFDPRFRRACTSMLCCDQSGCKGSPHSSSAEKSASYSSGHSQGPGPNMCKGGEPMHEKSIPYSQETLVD


Legend:
human APJ receptor = molecular target: T1, human APJ receptor; experiment: cell-based or functional assay
rat APJ receptor = molecular target: T2, rat APJ receptor; experiment: cell-based or functional assay

Binder	EC50 Human APJ Receptor (human APJ receptor)	EC50 Rat APJ Receptor (rat APJ receptor)
Ac-[dR][hArg]Q[hArg]P[dR][NMeL]SHKG[Oic][Phe(4-I)]P[dBip]-OH [apelin polypeptide SEQ ID NO: 18]	0.468 nM	0.523 nM
Tridecanoyl-[γGlu][AEEA][AEEA]Q[hArg]P[dR][NMeL]SHKG[Oic][Nle]P[Phe(4-Cl)]-OH (SMILES CCCCCCCCCCCCC(=O)N[C@@H](CCC(=O)NCCOCCOCC(=O)NCCOCCOCC(=O)N[C@@H](CCC(N)=O)C(=O)N[C@@H](CCCCNC(=N)N)C(=O)N1CCC[C@H]1C(=O)N[C@H](CCCNC(=N)N)C(=O)N(C)[C@@H](CC(C)C)C(=O)N[C@@H](CO)C(=O)N[C@@H](Cc1c[nH]cn1)C(=O)N[C@@H](CCCCN)C(=O)NCC(=O)N1[C@H](C(=O)N[C@@H](CCCC)C(=O)N2CCC[C@H]2C(=O)N[C@@H](Cc2ccc(Cl)cc2)C(=O)O)C[C@@H]2CCCC[C@@H]21)C(=O)O) [apelin polypeptide SEQ ID NO: 225]	3.02 nM	47.9 nM
Tridecanoyl-[γGlu][AEEA][AEEA]Q[hArg]P[dR][NMeL]SHKG[Oic][Phe(4-I)]P[Phe(4-Cl)]-OH (SMILES CCCCCCCCCCCCC(=O)N[C@@H](CCC(=O)NCCOCCOCC(=O)NCCOCCOCC(=O)N[C@@H](CCC(N)=O)C(=O)N[C@@H](CCCCNC(=N)N)C(=O)N1CCC[C@H]1C(=O)N[C@H](CCCNC(=N)N)C(=O)N(C)[C@@H](CC(C)C)C(=O)N[C@@H](CO)C(=O)N[C@@H](Cc1c[nH]cn1)C(=O)N[C@@H](CCCCN)C(=O)NCC(=O)N1[C@H](C(=O)N[C@@H](Cc2ccc(I)cc2)C(=O)N2CCC[C@H]2C(=O)N[C@@H](Cc2ccc(Cl)cc2)C(=O)O)C[C@@H]2CCCC[C@@H]21)C(=O)O) [apelin polypeptide SEQ ID NO: 226]	20.8 nM	91 nM
Tridecanoyl-[γGlu][AEEA][AEEA]QRP[hArg][Cha]SHKG[Oic][Phe(4-I)]P[dBip]-OH (SMILES CCCCCCCCCCCCC(=O)N[C@@H](CCC(=O)NCCOCCOCC(=O)NCCOCCOCC(=O)N[C@@H](CCC(N)=O)C(=O)N[C@@H](CCCNC(=N)N)C(=O)N1CCC[C@H]1C(=O)N[C@@H](CCCCNC(=N)N)C(=O)N[C@@H](CC1CCCCC1)C(=O)N[C@@H](CO)C(=O)N[C@@H](Cc1c[nH]cn1)C(=O)N[C@@H](CCCCN)C(=O)NCC(=O)N1[C@H](C(=O)N[C@@H](Cc2ccc(I)cc2)C(=O)N2CCC[C@H]2C(=O)N[C@H](Cc2ccc(-c3ccccc3)cc2)C(=O)O)C[C@@H]2CCCC[C@@H]21)C(=O)O) [apelin polypeptide SEQ ID NO: 223]	11.3 nM	52.8 nM
Tridecanoyl-[γGlu][AEEA][AEEA]QRP[dR][Cha]SHKG[Oic][Phe(4-I)]P[dBip]-OH (SMILES CCCCCCCCCCCCC(=O)N[C@@H](CCC(=O)NCCOCCOCC(=O)NCCOCCOCC(=O)N[C@@H](CCC(N)=O)C(=O)N[C@@H](CCCNC(=N)N)C(=O)N1CCC[C@H]1C(=O)N[C@H](CCCNC(=N)N)C(=O)N[C@@H](CC1CCCCC1)C(=O)N[C@@H](CO)C(=O)N[C@@H](Cc1c[nH]cn1)C(=O)N[C@@H](CCCCN)C(=O)NCC(=O)N1[C@H](C(=O)N[C@@H](Cc2ccc(I)cc2)C(=O)N2CCC[C@H]2C(=O)N[C@H](Cc2ccc(-c3ccccc3)cc2)C(=O)O)C[C@@H]2CCCC[C@@H]21)C(=O)O) [apelin polypeptide SEQ ID NO: 224]	28.2 nM	102 nM
Heptadecanoyl-[γGlu][AEEA][AEEA]Q[dR]P[NMeR][Cha]SHKG[Oic][Nle][Pip′][Phe(4-Cl)]-OH [apelin polypeptide SEQ ID NO: 234]	6.05 nM	12.5 nM
Tridecanoyl-[γGlu][AEEA][AEEA]Q[hArg]P[dR][NMeL]SHKG[Oic][Nle]P[dBip]-OH (SMILES CCCCCCCCCCCCC(=O)N[C@@H](CCC(=O)NCCOCCOCC(=O)NCCOCCOCC(=O)N[C@@H](CCC(N)=O)C(=O)N[C@@H](CCCCNC(=N)N)C(=O)N1CCC[C@H]1C(=O)N[C@H](CCCNC(=N)N)C(=O)N(C)[C@@H](CC(C)C)C(=O)N[C@@H](CO)C(=O)N[C@@H](Cc1c[nH]cn1)C(=O)N[C@@H](CCCCN)C(=O)NCC(=O)N1[C@H](C(=O)N[C@@H](CCCC)C(=O)N2CCC[C@H]2C(=O)N[C@H](Cc2ccc(-c3ccccc3)cc2)C(=O)O)C[C@@H]2CCCC[C@@H]21)C(=O)O) [apelin polypeptide SEQ ID NO: 227]	8.77 nM	97.5 nM
Tridecanoyl-[γGlu][AEEA][AEEA][hArg]Q[dR]P[NMeR][Cha]SHKG[Oic][Nle]P[Phe(4-Cl)]-OH (SMILES CCCCCCCCCCCCC(=O)N[C@@H](CCC(=O)NCCOCCOCC(=O)NCCOCCOCC(=O)N[C@@H](CCCCNC(=N)N)C(=O)N[C@@H](CCC(N)=O)C(=O)N[C@H](CCCNC(=N)N)C(=O)N1CCC[C@H]1C(=O)N(C)[C@@H](CCCNC(=N)N)C(=O)N[C@@H](CC1CCCCC1)C(=O)N[C@@H](CO)C(=O)N[C@@H](Cc1c[nH]cn1)C(=O)N[C@@H](CCCCN)C(=O)NCC(=O)N1[C@H](C(=O)N[C@@H](CCCC)C(=O)N2CCC[C@H]2C(=O)N[C@@H](Cc2ccc(Cl)cc2)C(=O)O)C[C@@H]2CCCC[C@@H]21)C(=O)O) [apelin polypeptide SEQ ID NO: 229]	0.235 nM	3.29 nM
Heptadecanoyl-[γGlu][AEEA][AEEA]Q[dR]P[NMeR][Cha]SHKG[Oic][Nle]P[Tic]-OH (SMILES CCCCCCCCCCCCCCCCC(=O)N[C@@H](CCC(=O)NCCOCCOCC(=O)NCCOCCOCC(=O)N[C@@H](CCC(N)=O)C(=O)N[C@H](CCCNC(=N)N)C(=O)N1CCC[C@H]1C(=O)N(C)[C@@H](CCCNC(=N)N)C(=O)N[C@@H](CC1CCCCC1)C(=O)N[C@@H](CO)C(=O)N[C@@H](Cc1c[nH]cn1)C(=O)N[C@@H](CCCCN)C(=O)NCC(=O)N1[C@H](C(=O)N[C@@H](CCCC)C(=O)N2CCC[C@H]2C(=O)N2Cc3ccccc3C[C@H]2C(=O)O)C[C@@H]2CCCC[C@@H]21)C(=O)O) [apelin polypeptide SEQ ID NO: 238]	6.68 nM	28.5 nM
Heptadecanoyl-[γGlu][AEEA][AEEA][dQ][hArg]P[NMeR][Cha]SHKG[Oic][Nle]P[dPhe(4-Cl)]-OH (SMILES CCCCCCCCCCCCCCCCC(=O)N[C@@H](CCC(=O)NCCOCCOCC(=O)NCCOCCOCC(=O)N[C@H](CCC(N)=O)C(=O)N[C@@H](CCCCNC(=N)N)C(=O)N1CCC[C@H]1C(=O)N(C)[C@@H](CCCNC(=N)N)C(=O)N[C@@H](CC1CCCCC1)C(=O)N[C@@H](CO)C(=O)N[C@@H](Cc1c[nH]cn1)C(=O)N[C@@H](CCCCN)C(=O)NCC(=O)N1[C@H](C(=O)N[C@@H](CCCC)C(=O)N2CCC[C@H]2C(=O)N[C@H](Cc2ccc(Cl)cc2)C(=O)O)C[C@@H]2CCCC[C@@H]21)C(=O)O) [apelin polypeptide SEQ ID NO: 237]	4.96 nM	4.89 nM
Heptadecanoyl-[γGlu][AEEA][AEEA][hArg]Q[dR]P[NMeR][Cha]SHKG[Oic][Nle][Pip′][Phe(4-Cl)]-OH [apelin polypeptide SEQ ID NO: 239]	1.45 nM	8.61 nM
Tridecanoyl-[γGlu][AEEA][AEEA]Q[hArg]P[dR][Cha]SHKG[Oic][Nle]P[Phe(4-Cl)]-OH (SMILES CCCCCCCCCCCCC(=O)N[C@@H](CCC(=O)NCCOCCOCC(=O)NCCOCCOCC(=O)N[C@@H](CCC(N)=O)C(=O)N[C@@H](CCCCNC(=N)N)C(=O)N1CCC[C@H]1C(=O)N[C@H](CCCNC(=N)N)C(=O)N[C@@H](CC1CCCCC1)C(=O)N[C@@H](CO)C(=O)N[C@@H](Cc1c[nH]cn1)C(=O)N[C@@H](CCCCN)C(=O)NCC(=O)N1[C@H](C(=O)N[C@@H](CCCC)C(=O)N2CCC[C@H]2C(=O)N[C@@H](Cc2ccc(Cl)cc2)C(=O)O)C[C@@H]2CCCC[C@@H]21)C(=O)O) [apelin polypeptide SEQ ID NO: 228]	0.484 nM	7.91 nM
